From patent publication US20220227830A1, “QD DOSING OF GIP RECEPTOR AGONIST PEPTIDE COMPOUNDS AND USES THEREOF” (Takeda Pharmaceutical Company Limited, priority 2020, published 2022)
Starred links: 1 amine or outer side, 2 acyl side, 3 side chain; linkers in the order of their positions; H or OH if unused. Non-standard residues stand in square brackets, D forms with d. Groups on a side chain read outwards from the residue. No end group written: not given here. *: point of attachment. C15 diacid = O=C(O)CCCCCCCCCCCCCC(=O)*; γGlu = O=C(O)[C@H](CCC(=O)[*:2])N[*:1]; NMeY = CN[C@@H](Cc1ccc(O)cc1)C(=O)O; AEEA = NCCOCCOCC(=O)O; Aib = CC(C)(N)C(=O)O

B1: Compound 129 (peptide)
peptide: [NMeY][Aib]EGTFISDYSI[Aib]K([AEEA-AEEA-γGlu-C15 diacid])DR[Aib]AQ[Aib]DFVNWLLAQSPSSGAPPPS-NH2
modifications: N-terminus assumed
SMILES: CC[C@H](C)[C@H](NC(=O)[C@H](Cc1ccccc1)NC(=O)[C@@H](NC(=O)CNC(=O)[C@H](CCC(=O)O)NC(=O)C(C)(C)NC(=O)[C@H](Cc1ccc(O)cc1)NC)[C@@H](C)O)C(=O)N[C@@H](CO)C(=O)N[C@@H](CC(=O)O)C(=O)N[C@@H](Cc1ccc(O)cc1)C(=O)N[C@@H](CO)C(=O)N[C@H](C(=O)NC(C)(C)C(=O)N[C@@H](CCCCNC(=O)COCCOCCNC(=O)COCCOCCNC(=O)CC[C@H](NC(=O)CCCCCCCCCCCCCC(=O)O)C(=O)O)C(=O)N[C@@H](CC(=O)O)C(=O)N[C@@H](CCCNC(=N)N)C(=O)NC(C)(C)C(=O)N[C@@H](C)C(=O)N[C@@H](CCC(N)=O)C(=O)NC(C)(C)C(=O)N[C@@H](CC(=O)O)C(=O)N[C@@H](Cc1ccccc1)C(=O)N[C@H](C(=O)N[C@@H](CC(N)=O)C(=O)N[C@@H](Cc1c[nH]c2ccccc12)C(=O)N[C@@H](CC(C)C)C(=O)N[C@@H](CC(C)C)C(=O)N[C@@H](C)C(=O)N[C@@H](CCC(N)=O)C(=O)N[C@@H](CO)C(=O)N1CCC[C@H]1C(=O)N[C@@H](CO)C(=O)N[C@@H](CO)C(=O)NCC(=O)N[C@@H](C)C(=O)N1CCC[C@H]1C(=O)N1CCC[C@H]1C(=O)N1CCC[C@H]1C(=O)N[C@@H](CO)C(N)=O)C(C)C)[C@@H](C)CC
B2: Compound 12 (peptide)
peptide: [NMeY][Aib]EGTFISDYSIALDR[Aib]HQ[Aib]K([AEEA-AEEA-γGlu-C15 diacid])FVNWLLAQK-OH
modifications: N-terminus assumed
SMILES: CC[C@H](C)[C@H](NC(=O)[C@H](CO)NC(=O)[C@H](Cc1ccc(O)cc1)NC(=O)[C@H](CC(=O)O)NC(=O)[C@H](CO)NC(=O)[C@@H](NC(=O)[C@H](Cc1ccccc1)NC(=O)[C@@H](NC(=O)CNC(=O)[C@H](CCC(=O)O)NC(=O)C(C)(C)NC(=O)[C@H](Cc1ccc(O)cc1)NC)[C@@H](C)O)[C@@H](C)CC)C(=O)N[C@@H](C)C(=O)N[C@@H](CC(C)C)C(=O)N[C@@H](CC(=O)O)C(=O)N[C@@H](CCCNC(=N)N)C(=O)NC(C)(C)C(=O)N[C@@H](Cc1c[nH]cn1)C(=O)N[C@@H](CCC(N)=O)C(=O)NC(C)(C)C(=O)N[C@@H](CCCCNC(=O)COCCOCCNC(=O)COCCOCCNC(=O)CC[C@H](NC(=O)CCCCCCCCCCCCCC(=O)O)C(=O)O)C(=O)N[C@@H](Cc1ccccc1)C(=O)N[C@H](C(=O)N[C@@H](CC(N)=O)C(=O)N[C@@H](Cc1c[nH]c2ccccc12)C(=O)N[C@@H](CC(C)C)C(=O)N[C@@H](CC(C)C)C(=O)N[C@@H](C)C(=O)N[C@@H](CCC(N)=O)C(=O)N[C@@H](CCCCN)C(=O)O)C(C)C
B3: Compound 128 (peptide)
peptide: [NMeY][Aib]EGTFISDYSI[Aib]K([AEEA-AEEA-γGlu-C15 diacid])DR[Aib]AQ[Aib]DFVNWLLAQRPSSGAPPPS-NH2
modifications: N-terminus assumed
SMILES: CC[C@H](C)[C@H](NC(=O)[C@H](Cc1ccccc1)NC(=O)[C@@H](NC(=O)CNC(=O)[C@H](CCC(=O)O)NC(=O)C(C)(C)NC(=O)[C@H](Cc1ccc(O)cc1)NC)[C@@H](C)O)C(=O)N[C@@H](CO)C(=O)N[C@@H](CC(=O)O)C(=O)N[C@@H](Cc1ccc(O)cc1)C(=O)N[C@@H](CO)C(=O)N[C@H](C(=O)NC(C)(C)C(=O)N[C@@H](CCCCNC(=O)COCCOCCNC(=O)COCCOCCNC(=O)CC[C@H](NC(=O)CCCCCCCCCCCCCC(=O)O)C(=O)O)C(=O)N[C@@H](CC(=O)O)C(=O)N[C@@H](CCCNC(=N)N)C(=O)NC(C)(C)C(=O)N[C@@H](C)C(=O)N[C@@H](CCC(N)=O)C(=O)NC(C)(C)C(=O)N[C@@H](CC(=O)O)C(=O)N[C@@H](Cc1ccccc1)C(=O)N[C@H](C(=O)N[C@@H](CC(N)=O)C(=O)N[C@@H](Cc1c[nH]c2ccccc12)C(=O)N[C@@H](CC(C)C)C(=O)N[C@@H](CC(C)C)C(=O)N[C@@H](C)C(=O)N[C@@H](CCC(N)=O)C(=O)N[C@@H](CCCNC(=N)N)C(=O)N1CCC[C@H]1C(=O)N[C@@H](CO)C(=O)N[C@@H](CO)C(=O)NCC(=O)N[C@@H](C)C(=O)N1CCC[C@H]1C(=O)N1CCC[C@H]1C(=O)N1CCC[C@H]1C(=O)N[C@@H](CO)C(N)=O)C(C)C)[C@@H](C)CC
B4: Compound 127 (peptide)
peptide: [NMeY][Aib]EGTFISDYSIALDRK([AEEA-AEEA-γGlu-C15 diacid])AQ[Aib]NFVNWLLAQSPSSGAPPPS-NH2
modifications: N-terminus assumed
SMILES: CC[C@H](C)[C@H](NC(=O)[C@H](CO)NC(=O)[C@H](Cc1ccc(O)cc1)NC(=O)[C@H](CC(=O)O)NC(=O)[C@H](CO)NC(=O)[C@@H](NC(=O)[C@H](Cc1ccccc1)NC(=O)[C@@H](NC(=O)CNC(=O)[C@H](CCC(=O)O)NC(=O)C(C)(C)NC(=O)[C@H](Cc1ccc(O)cc1)NC)[C@@H](C)O)[C@@H](C)CC)C(=O)N[C@@H](C)C(=O)N[C@@H](CC(C)C)C(=O)N[C@@H](CC(=O)O)C(=O)N[C@@H](CCCNC(=N)N)C(=O)N[C@@H](CCCCNC(=O)COCCOCCNC(=O)COCCOCCNC(=O)CC[C@H](NC(=O)CCCCCCCCCCCCCC(=O)O)C(=O)O)C(=O)N[C@@H](C)C(=O)N[C@@H](CCC(N)=O)C(=O)NC(C)(C)C(=O)N[C@@H](CC(N)=O)C(=O)N[C@@H](Cc1ccccc1)C(=O)N[C@H](C(=O)N[C@@H](CC(N)=O)C(=O)N[C@@H](Cc1c[nH]c2ccccc12)C(=O)N[C@@H](CC(C)C)C(=O)N[C@@H](CC(C)C)C(=O)N[C@@H](C)C(=O)N[C@@H](CCC(N)=O)C(=O)N[C@@H](CO)C(=O)N1CCC[C@H]1C(=O)N[C@@H](CO)C(=O)N[C@@H](CO)C(=O)NCC(=O)N[C@@H](C)C(=O)N1CCC[C@H]1C(=O)N1CCC[C@H]1C(=O)N1CCC[C@H]1C(=O)N[C@@H](CO)C(N)=O)C(C)C

Key:
[1] = biological target: T1, full-length human GIPR with an N-terminal FLAG tag (human, UniProt P48546 22-466); assay: cell-based or functional assay
T1 sequence (looked up): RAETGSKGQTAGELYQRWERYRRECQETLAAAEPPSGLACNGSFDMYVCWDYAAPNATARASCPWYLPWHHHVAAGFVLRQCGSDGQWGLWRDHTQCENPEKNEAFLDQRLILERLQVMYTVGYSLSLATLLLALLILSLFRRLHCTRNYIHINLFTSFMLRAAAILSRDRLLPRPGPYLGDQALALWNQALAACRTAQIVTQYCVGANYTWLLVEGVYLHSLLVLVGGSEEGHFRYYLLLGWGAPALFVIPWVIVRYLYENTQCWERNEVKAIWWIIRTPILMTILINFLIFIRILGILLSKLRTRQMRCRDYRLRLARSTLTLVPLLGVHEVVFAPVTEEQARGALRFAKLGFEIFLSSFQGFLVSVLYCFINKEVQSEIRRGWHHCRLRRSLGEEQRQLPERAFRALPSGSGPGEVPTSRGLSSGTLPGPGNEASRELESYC

[2] = biological target: full-length human GLP-1R with an N-terminal FLAG tag (human, UniProt P43220 24-463); assay: cell-based or functional assay

| Binder | Human GIPR cAMP, HEK293T EC50 [1] [nM] | Human GLP1R cAMP HEK293T EC50 [2] [nM] |
| --- | --- | --- |
| B1 | 0.0005 | 1000 |
| B2 | 0.0002 | 363 |
| [NMeY][Aib]EGTFISDYSIALDR[Aib]AQ[Aib]KFVNWLLAQRPSSGAPPPS-NH2 (not fully specified (residue 21)) [Compound 130] | 0.0004 | 91.2 |
| B3 | 0.0004 | 457 |
| B4 | 0.0005 | 66.1 |
